# Assay results from FireProtDB (doi:10.1016/s0022-2836(02)00630-7).
# B1: Phosphocarrier protein HPr, P08877 (parent)
# chain: MAQKTFKVTADSGIHARPATVLVQTASKYDADVNLEYNGKTVNLKSIMGVMSLGIAKGAEITISASGADENDALNALEETMKSEGLGE
# Variants of: B1
# Conditions: Bacillus subtilis (strain 168), pH 7, CD, Potassium phosphate 10 mM, reversible: yes, structure 1KKM, whole UniProt chain shown; for ddG of mutation (higher = less stable) / denaturant m value / denaturant midpoint (higher = more stable): 25 °C
Variant,ddG of mutation (higher = less stable) (Thermal) [kcal/mol],ddG of mutation (higher = less stable) (Urea) [kcal/mol],denaturant m value (Urea) [kcal/mol/M],denaturant midpoint (higher = more stable) (Urea) [M],Tm (Thermal) [°C],"change of melting temperature, mutant - wild type (higher = more stable) (Thermal) [°C]",unfolding enthalpy (van 't Hoff) (Thermal) [kcal/mol]
G49K,1,0.8,1.13,3.84,68.1,-4.5,73.9
G49E,-1.4,-1.2,1,5.77,78.1,5.5,83.8
G49A,-0.8,-0.9,1.01,5.44,75.8,3.2,82.4
